To fix the notation:
T1: RFX5 (human, UniProt P48382 2-616)
T1 construct: also called RFX5 subunit of RFX
T1 sequence (looked up): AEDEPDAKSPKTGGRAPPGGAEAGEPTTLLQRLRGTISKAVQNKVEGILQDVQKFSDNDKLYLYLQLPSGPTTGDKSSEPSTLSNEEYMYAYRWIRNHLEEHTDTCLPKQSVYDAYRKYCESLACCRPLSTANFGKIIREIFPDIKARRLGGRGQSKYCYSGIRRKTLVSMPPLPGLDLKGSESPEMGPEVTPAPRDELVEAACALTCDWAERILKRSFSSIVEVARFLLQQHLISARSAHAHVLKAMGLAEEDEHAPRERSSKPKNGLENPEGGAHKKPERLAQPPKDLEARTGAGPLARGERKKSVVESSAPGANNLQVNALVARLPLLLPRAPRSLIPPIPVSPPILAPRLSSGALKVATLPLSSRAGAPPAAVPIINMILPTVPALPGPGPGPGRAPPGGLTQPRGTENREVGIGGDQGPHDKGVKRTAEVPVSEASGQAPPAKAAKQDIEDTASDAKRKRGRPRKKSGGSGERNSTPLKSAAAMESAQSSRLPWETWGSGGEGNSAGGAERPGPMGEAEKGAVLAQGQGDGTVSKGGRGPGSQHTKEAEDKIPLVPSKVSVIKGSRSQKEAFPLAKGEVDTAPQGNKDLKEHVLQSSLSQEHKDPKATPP

B1: RFXAP (other, human, UniProt O00287 1-272, looked up)
chain: MEAQGVAEGAGPGAASGVPHPAALAPAAAPTLAPASVAAAASQFTLLVMQPCAGQDEAAAPGGSVGAGKPVRYLCEGAGDGEEEAGEDEADLLDTSDPPGGGESAASLEDLEDEETHSGGEGSSGGARRRGSGGGSMSKTCTYEGCSETTSQVAKQRKPWMCKKHRNKMYKDKYKKKKSDQALNCGGTASTGSAGNVKLEESADNILSIVKQRTGSFGDRPARPTLLEQVLNQKRLSLLRSPEVVQFLQKQQQLLNQQVLEQRQQQFPGTSM
notes: also called RFXAP subunit of RFX
B2: FLAG-RFXANK (other)
chain: DYKDDDDKMELTQPAEDLIQTQQTPASELGDPEDPGEEAADGSDTVVLSLFPCTPEPVNPEPDASVSSPQAGSSLKHSTTLTNRQRGNEVSALPATLDSLSIHQLAAQGELDQLKEHLRKGDNLVNKPDERGFTPLIWASAFGEIETVRFLLEWGADPHILAKERESALSLASTGGYTDIVGLLLERDVDINIYDWNGGTPLLYAVRGNHVKCVEALLARGADLTTEADSGYTPMDLAVALGYRKVQQVIENHILKLFQSNLVPADPE
notes: In vitro translated

Test [1] concerns the target MHC-II enhanceosome assembled on the DRA promoter fragment (human) (UniProt P48382). Kind of test: promoter pull-down from crude cell extracts, immunoblot.
Test [2] concerns the target T1, RFX5. The test can be described thus: EMSA supershift of co-translated subunits on X box probe. In general terms: In EMSA bound probe runs differently from free probe, usually more slowly.
Test [3] addresses B1. The description is as above.

On to “CIITA (wild type) (from UniProt P33076 1-1130)”, for which the percent of the CIITA recruited in test [1] is < 1%.
On to B1, for which the binding result in test [2] is on record as “binds”.
As for B2, the binding result in test [2] and in test [3] was “binds” throughout.

The values above are taken from US20090023152A1 (published 2009).
